Assay results published in the supplement of paper PMC5998384.

Legend:
HeLa Kyoto [1] = assay: thermal stability score vs G1/S (z-score of summed log2 fold changes over temperatures); higher = more thermally stable than in G1/S
HeLa Kyoto [2] = assay: solubility in G1/S (NP-40 vs SDS abundance) (log2 ratio); higher = more soluble; conditions: cell cycle stage: G1/S
HeLa Kyoto [3] = assay: melting temperature (median over replicates), in situ; higher = more thermally stable
HeLa Kyoto [4] = assay: solubility change mitosis vs G1/S (difference of NP-40 vs SDS log2 ratios) (log2 ratio difference); higher = more soluble in mitosis
[5] = cell cycle stage: early G1 (4.5 h after nocodazole release)
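Throughout, for melting temperature (median over replicates), in situ: HeLa Kyoto cells synchronized by double thymidine or nocodazole block, proteins quantified by TMT10plex mass spectrometry, three independent biological replicates.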
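Throughout, for solubility change mitosis vs G1/S (difference of NP-40 vs SDS log2 ratios): synchronized HeLa Kyoto cells (double thymidine block for G1/S, nocodazole release for mitosis), protein amounts in NP-40 versus SDS lysates quantified by mass spectrometry, three biological replicates.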
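Throughout, for solubility in G1/S (NP-40 vs SDS abundance): HeLa Kyoto cells arrested at G1/S by double thymidine block, proteins quantified by TMT10plex mass spectrometry in mild NP-40 versus SDS extracts, three biological replicates.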
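Throughout, for thermal stability score vs G1/S (z-score of summed log2 fold changes over temperatures): synchronized HeLa Kyoto cells, proteins quantified by TMT10plex mass spectrometry, three biological replicates, mitosis taken 0.5 h after nocodazole release, G1/S directly after double thymidine block.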

Substance	thermal stability score (HeLa Kyoto [1]; [5])	thermal stability score (HeLa Kyoto [1]; cell cycle stage: mitosis)	solubility in G1/S (log2) (HeLa Kyoto [2])	melting temperature (HeLa Kyoto [3]; cell cycle stage: G1/S)	melting temperature (HeLa Kyoto [3]; cell cycle stage: mitosis)	solubility change mitosis (log2) (HeLa Kyoto [4])
AKAP9	1.11	1.77	-0.0993	49.3 °C	49.6 °C	-0.0345
MGVQPPNFSWVLPGRLAGLALPRLPAHYQFLLDLGVRHLVSLTERGPPHSDSCPGLTLHRLRIPDFCPPAPDQIDRFVQIVDEANARGEAVGVHCALGFGRTGTMLACYLVKERGLAAGDAIAEIRRLRPGSIETYEQEKAVFQFYQRTK [DUSP23]	0.571	-0.468	0.00547	52.5 °C	52.9 °C	-0.112
MRSLGANMAAALRAAGVLLRDPLASSSWRVCQPWRWKSGAAAAAVTTETAQHAQGAKPQVQPQKRKPKTGILMLNMGGPETLGDVHDFLLRLFLDRDLMTLPIQNKLAPFIAKRRTPKIQEQYRRIGGGSPIKIWTSKQGEGMVKLLDELSPNTAPHKYYIGFRYVHPLTEEAIEEMERDGLERAIAFTQYPQYSCSTTGSSLNAIYRYYNQVGRKPTMKWSTIDRWPTHHLLIQCFADHILKELDHFPLEKRSEVVILFSAHSLPMSVVNRGDPYPQEVSATVQKVMERLEYCNPYRLVWQSKVGPMPWLGPQTDESIKGLCERGRKNILLVPIAFTSDHIETLYELDIEYSQVLAKECGVENIRRAESLNGNPLFSKALADLVHSHIQSNELCSKQLTLSCPLCVNPVCRETKSFFTSQQL [FECH]	-0.37	-0.327	0.25	51.9 °C	53.4 °C	-0.0764
MEWGSESAAVRRHRVGVERREGAAAAPPPEREARAQEPLVDGCSGGGRTRKRSPGGSGGASRGAGTGLSEVRAALGLALYLIALRTLVQLSLQQLVLRGAAGHRGEFDALQARDYLEHITSIGPRTTGSPENEILTVHYLLEQIKLIEVQSNSLHKISVDVQRPTGSFSIDFLGGFTSYYDNITNVVVKLEPRDGAQHAVLANCHFDSVANSPGASDDAVSCSVMLEVLRVLSTSSEALHHAVIFLFNGAEENVLQASHGFITQHPWASLIRAFINLEAAGVGGKELVFQTGPENPWLVQAYVSAAKHPFASVVAQEVFQSGIIPSDTDFRIYRDFGNIPGIDLAFIENGYIYHTKYDTADRILTDSIQRAGDNILAVLKHLATSDMLAAASKYRHGNMVFFDVLGLFVIAYPSRIGSIINYMVVMGVVLYLGKKFLQPKHKTGNYKKDFLCGLGITLISWFTSLVTVLIIAVFISLIGQSLSWYNHFYVSVCLYGTATVAKIILIHTLAKRFYYMNASAQYLGEVFFDISLFVHCCFLVTLTYQGLCSAFISAVWVAFPLLTKLCVHKDFKQHGAQGKFIAFYLLGMFIPYLYALYLIWAVFEMFTPILGRSGSEIPPDVVLASILAGCTMILSSYFINFIYLAKSTKKTMLTLTLVCAITFLLVCSGTFFPYSSNPANPKPKRVFLQHMTRTFHDLEGNAVKRDSGIWINGFDYTGISHITPHIPEINDSIRAHCEENAPLCGFPWYLPVHFLIRKNWYLPAPEVSPRNPPHFRLISKEQTPWDSIKLTFEATGPSHMSFYVRAHKGSTLSQWSLGNGTPVTSKGGDYFVFYSHGLQASAWQFWIEVQVSEEHPEGMVTVAIAAHYLSGEDKRSPQLDALKEKFPDWTFPSAWVCTYDLFVF [ERMP1]	-3	-4.39	-0.0493	58.8 °C	56.7 °C	-0.18
MAKTYDYLFKLLLIGDSGVGKTCVLFRFSEDAFNSTFISTIGIDFKIRTIELDGKRIKLQIWDTAGQERFRTITTAYYRGAMGIMLVYDITNEKSFDNIRNWIRNIEEHASADVEKMILGNKCDVNDKRQVSKERGEKLALDYGIKFMETSAKANINVENAFFTLARDIKAKMDKKLEGNSPQGSNQGVKITPDQQKRSSFFRCVLL [RAB8A]	2.59	1.39	-0.0996	56.7 °C	55.4 °C	-0.103
MPYEIKKVFASLPQVERGVSKIIGGDPKGNNFLYTNGKCVILRNIDNPALADIYTEHAHQVVVAKYAPSGFYIASGDVSGKLRIWDTTQKEHLLKYEYQPFAGKIKDIAWTEDSKRIAVVGEGREKFGAVFLWDSGSSVGEITGHNKVINSVDIKQSRPYRLATGSDDNCAAFFEGPPFKFKFTIGDHSRFVNCVRFSPDGNRFATASADGQIYIYDGKTGEKVCALGGSKAHDGGIYAISWSPDSTHLLSASGDKTSKIWDVSVNSVVSTFPMGSTVLDQQLGCLWQKDHLLSVSLSGYINYLDRNNPSKPLHVIKGHSKSIQCLTVHKNGGKSYIYSGSHDGHINYWDSETGENDSFAGKGHTNQVSRMTVDESGQLISCSMDDTVRYTSLMLRDYSGQGVVKLDVQPKCVAVGPGGYAVVVCIGQIVLLKDQRKCFSIDNPGYEPEVVAVHPGGDTVAIGGVDGNVRLYSILGTTLKDEGKLLEAKGPVTDVAYSHDGAFLAVCDASKVVTVFSVADGYSENNVFYGHHAKIVCLAWSPDNEHFASGGMDMMVYVWTLSDPETRVKIQDAHRLHHVSSLAWLDEHTLVTTSHDASVKEWTITY [WDR1]	-0.713	-2.84	-0.153	53.7 °C	52.3 °C	-0.128
MALTRPVRLFSLVTRLLLAPRRGLTVRSPDEPLPVVRIPVALQRQLEQRQSRRRNLPRPVLVRPGPLLVSARRPELNQPARLTLGRWERAPLASQGWKSRRARRDHFSIERAQQEAPAVRKLSSKGSFADLGLEPRVLHALQEAAPEVVQPTTVQSSTIPSLLRGRHVVCAAETGSGKTLSYLLPLLQRLLGQPSLDSLPIPAPRGLVLVPSRELAQQVRAVAQPLGRSLGLLVRDLEGGHGMRRIRLQLSRQPSADVLVATPGALWKALKSRLISLEQLSFLVLDEADTLLDESFLELVDYILEKSHIAEGPADLEDPFNPKAQLVLVGATFPEGVGQLLNKVASPDAVTTITSSKLHCIMPHVKQTFLRLKGADKVAELVHILKHRDRAERTGPSGTVLVFCNSSSTVNWLGYILDDHKIQHLRLQGQMPALMRVGIFQSFQKSSRDILLCTDIASRGLDSTGVELVVNYDFPPTLQDYIHRAGRVGRVGSEVPGTVISFVTHPWDVSLVQKIELAARRRRSLPGLASSVKEPLPQAT [DDX28]	-0.0521	1.54	-0.336	50 °C	50.9 °C	0.0712
MTDDKDVLRDVWFGRIPTCFTLYQDEITEREAEPYYLLLPRVSYLTLVTDKVKKHFQKVMRQEDISEIWFEYEGTPLKWHYPIGLLFDLLASSSALPWNITVHFKSFPEKDLLHCPSKDAIEAHFMSCMKEADALKHKSQVINEMQKKDHKQLWMGLQNDRFDQFWAINRKLMEYPAEENGFRYIPFRIYQTTTERPFIQKLFRPVAADGQLHTLGDLLKEVCPSAIDPEDGEKKNQVMIHGIEPMLETPLQWLSEHLSYPDNFLHISIIPQPTD [ATG5]	-0.587	0.0242	0.406	54.2 °C	53.6 °C	0.0407
MWRLRRAAVACEVCQSLVKHSSGIKGSLPLQKLHLVSRSIYHSHHPTLKLQRPQLRTSFQQFSSLTNLPLRKLKFSPIKYGYQPRRNFWPARLATRLLKLRYLILGSAVGGGYTAKKTFDQWKDMIPDLSEYKWIVPDIVWEIDEYIDFEKIRKALPSSEDLVKLAPDFDKIVESLSLLKDFFTSGSPEETAFRATDRGSESDKHFRKVSDKEKIDQLQEELLHTQLKYQRILERLEKENKELRKLVLQKDDKGIHHRKLKKSLIDMYSEVLDVLSDYDASYNTQDHLPRVVVVGDQSAGKTSVLEMIAQARIFPRGSGEMMTRSPVKVTLSEGPHHVALFKDSSREFDLTKEEDLAALRHEIELRMRKNVKEGCTVSPETISLNVKGPGLQRMVLVDLPGVINTVTSGMAPDTKETIFSISKAYMQNPNAIILCIQDGSVDAERSIVTDLVSQMDPHGRRTIFVLTKVDLAEKNVASPSRIQQIIEGKLFPMKALGYFAVVTGKGNSSESIEAIREYEEEFFQNSKLLKTSMLKAHQVTTRNLSLAVSDCFWKMVRESVEQQADSFKATRFNLETEWKNNYPRLRELDRNELFEKAKNEILDEVISLSQVTPKHWEEILQQSLWERVSTHVIENIYLPAAQTMNSGTFNTTVDIKLKQWTDKQLPNKAVEVAWETLQEEFSRFMTEPKGKEHDDIFDKLKEAVKEESIKRHKWNDFAEDSLRVIQHNALEDRSISDKQQWDAAIYFMEEALQARLKDTENAIENMVGPDWKKRWLYWKNRTQEQCVHNETKNELEKMLKCNEEHPAYLASDEITTVRKNLESRGVEVDPSLIKDTWHQVYRRHFLKTALNHCNLCRRGFYYYQRHFVDSELECNDVVLFWRIQRMLAITANTLRQQLTNTEVRRLEKNVKEVLEDFAEDGEKKIKLLTGKRVQLAEDLKKVREIQEKLDAFIEALHQEK [OPA1]	1.61	0.517	-0.149	51.3 °C	51 °C	-0.0649
MTSFRLALIQLQISSIKSDNVTRACSFIREAATQGAKIVSLPECFNSPYGAKYFPEYAEKIPGESTQKLSEVAKECSIYLIGGSIPEEDAGKLYNTCAVFGPDGTLLAKYRKIHLFDIDVPGKITFQESKTLSPGDSFSTFDTPYCRVGLGICYDMRFAELAQIYAQRGCQLLVYPGAFNLTTGPAHWELLQRSRAVDNQVYVATASPARDDKASYVAWGHSTVVNPWGEVLAKAGTEEAIVYSDIDLKKLAEIRQQIPVFRQKRSDLYAVEMKKP [NIT2]	-0.442	-1.62	0.178	54.5 °C	54.4 °C	-0.0539
MDMKRRIHLELRNRTPAAVRELVLDNCKSNDGKIEGLTAEFVNLEFLSLINVGLISVSNLPKLPKLKKLELSENRIFGGLDMLAEKLPNLTHLNLSGNKLKDISTLEPLKKLECLKSLDLFNCEVTNLNDYRESVFKLLPQLTYLDGYDREDQEAPDSDAEVDGVDEEEEDEEGEDEEDEDDEDGEEEEFDEEDDEDEDVEGDEDDDEVSEEEEEFGLDEEDEDEDEDEEEEEGGKGEKRKRETDDEGEDD [ANP32B]	2.33	3.78	-0.0836	48.5 °C	53.3 °C	0.205
MASNDYTQQATQSYGAYPTQPGQGYSQQSSQPYGQQSYSGYSQSTDTSGYGQSSYSSYGQSQNTGYGTQSTPQGYGSTGGYGSSQSSQSSYGQQSSYPGYGQQPAPSSTSGSYGSSSQSSSYGQPQSGSYSQQPSYGGQQQSYGQQQSYNPPQGYGQQNQYNSSSGGGGGGGGGGNYGQDQSSMSSGGGSGGGYGNQDQSGGGGSGGYGQQDRGGRGRGGSGGGGGGGGGGYNRSSGGYEPRGRGGGRGGRGGMGGSDRGGFNKFGGPRDQGSRHDSEQDNSDNNTIFVQGLGENVTIESVADYFKQIGIIKTNKKTGQPMINLYTDRETGKLKGEATVSFDDPPSAKAAIDWFDGKEFSGNPIKVSFATRRADFNRGGGNGRGGRGRGGPMGRGGYGGGGSGGGGRGGFPSGGGGGGGQQRAGDWKCPNPTCENMNFSWRNECNQCKAPKPDGPGGGPGGSHMGGNYGDDRRGGRGGYDRGGYRGRGGDRGGFRGGRGGGDRGGFGPGKMDSRGEHRQDRRERPY [FUS]	0.878	-3.18	-0.295	56.1 °C	54.8 °C	0.333
